Assay results from patent publication US7687474B2, “Nitroreductase enzymes” (The Board of Trustees of the Leland Stanford Junior …, priority 2005, dated 2010).
Residue numbers refer to the chain shown, from its start. Names may count otherwise.

How the values were obtained:
SL 7838 = assay: Effect of prodrugs on the delivery strain SL 7838; settings: CB 1954 15 μM
Source text: We tested the S. typhimurium strain 7838 (SL 7838), transformed with different plasmids (see Methods), as a potential vehicle to attain this objective. IPTG was used to induce the wild type and mutant enzymes encoded by the plasmids. In these experiments, the prodrugs were activated by bacteria producing the specified enzymes instead of, as in previous experiments, the added enzymes.

HeLa cells [1] = settings: for HeLa cell killing by CNOB: CNOB as prodrug, pure protein (FIG. 7)
HeLa cells [2] = assay: Confocal imaging of CNOB reduction in HeLa cells infected with SL 7838 expressing GFP and Y6; assay type: cell-based, Human; settings: HeLa cells infected with SL 7838 expressing GFP and Y6 (FIG. 8)
ChrR = target: T1, ChrR (Escherichia coli, UniProt P0AGE6, E57D/G167S); assay type: biochemical, E. coli; settings: CNOB versus CB 1954
T1 construct: made in house; host or cells: E. coli BL21 (DE3)
Source text: To evaluate if CNOB competes with CB 1954 on the active site of the enzyme we performed a competition assay.

HeLa cells [3] = assay: Viability test: prodrug activated by purified enzyme, loss of HeLa cell viability
Experimental: Viability tests. As mentioned in the Results section, these involved two incubation periods, prodrug activation, followed by assay of the toxic moiety generated by determining the loss of HeLa cell viability. […] Following prodrug reduction at 37° C., 0.5 ml of fresh HeLa cells (˜0.5-1×10^5) were added. The duration of the prodrug reduction was 30 min in all experiments; the HeLa cell exposure periods were as specified in the text. After the latter incubation, 20 μl of the color reagent, CellTiter 96®AqueousOne (PROMEGA Inc) were added to 100 μl aliquots of the reaction mixture. Following an additional 1 h of incubation, A490 was measured in a BioTek microplate S330 reader.
Prodrug activation by wild type YieF and the evolved enzymes. […] The experiments involved two incubation periods. In the first period, the enzyme and the drug were incubated to generate the toxic species; in the second period, which was initiated with the addition of HeLa cells to the reaction mixture, the extent of drug activation was inferred from the loss of HeLa cell viability. In the experiments described in this section, both the prodrug reduction and the subsequent cell exposure periods were of 30 min duration, and the enzyme and drug concentrations were 50 μg ml^−1 and 15 μM, respectively. […]

HeLa cells [4] = assay: Cell survival assay using SL 7838 to deliver the wild type or evolved enzymes; assay type: cell-based, Human; settings: for amount of bacteria required / killing of surface-adhered HeLa-luc cells: SL 7838 expressing the enzyme, 15 μM CB 1954, 1 h + 3 h incubation, luciferase read-out (FIG. 6)
Source text: Cell survival assay, using SL 7838 to deliver the wild type or evolved enzymes. SL 7838 contains deletions in the aroA and sopE genes. This strain is non-pathogenic in immunocompetent mice, but can colonize and persist in solid tumors. The strain was transformed with appropriate plasmids to express the yief (now chrR), nfsA or theY6 (now chrR6)-encoding yieFY6 gene. It was also transformed with a vector containing the lux operon, expressing the bacterial luciferase (product of the luxR gene) and its substrate. HeLa cells stably transfected to express firefly luciferase were added to black walled 96-well plates at a density of 1000 cells well^−1. Once the cells had attached, a dilution series of non-transformed SL 7838 or SL 7838 transformed with plasmids expressing the appropriate genes (Table 1) was added to the plates; 0.5 mM IPTG was added to induce the genes on the plasmids. After 1 h incubation, 15 μM CB 1954 was added. Light output per well produced from bacterial luciferase (no additional substrate added) or bacterial and firefly luciferase (following addition of 2 μl of 30 mg ml^−1 luciferin per well) was measured on an IVIS50 system (Xenogen Corp.). Percentage HeLa cell survival was determined by calculating firefly luciferase expression (total light output—bacterial light output) relative to wells containing unchallenged HeLa cells or HeLa cells treated with 70% ethanol. All experiments were performed at least in triplicate; error bars in the figures are SEM.
SL 7838 as a delivery vehicle to tumor cells. […] We tested the S. typhimurium strain 7838 (SL 7838), transformed with different plasmids (see Methods), as a potential vehicle to attain this objective. IPTG was used to induce the wild type and mutant enzymes encoded by the plasmids. […]
Further analysis was performed to test the efficiency of SL 7838 to deliver the enzymes to surface-adhered HeLa cells. […] After a further 3 h incubation period the firefly luciferase substrate (luciferin) was added, and the light output was used to quantify HeLa cell survival (FIG. 6).

## NC(=O)c1cc(N2CC2)c([N+](=O)[O-])cc1[N+](=O)[O-] [CB 1954, 5-aziridinyl-2,4-dinitrobenzamide]
SL 7838
  effect on replication of SL7838: did not inhibit replication

## O=c1c(Cl)c2oc3cc([N+](=O)[O-])ccc3nc-2c2ccccc12 [CNOB]
HeLa cells [1]; compared with CB1954
  prodrug efficiency in in vitro cytotoxicity assays: same efficiency as CB1954
HeLa cells [2]
  bystander effect (red fluorescence in uninfected cells): effective bystander effect
ChrR
  mode of inhibition in competition assay: competitive inhibitors of each other

B1: Y6: evolved YieF enzyme with four substitutions: V120A, Y128N, T160N and Q175L (protein, UniProt P0AGE6 1-188, looked up, variant V120A Y128N T160N Q175L)
Quinone reductase: MSEKLQVVTLLGSLRKGSFNGMVARTLPKIAPASMEVNALPSIADIPLYDADVQQEEGFPATVEALAEQIRQADGVVIVTPEYNYSVPGGLKNAIDWLSRLPDQPLAGKPVLIQTSSMGAIGGARCQNHLRQILVFLDAMVMNKPEFMGGVIQNKVDPQNGEVIDQGTLDHLTGLLTAFGEFIQRVKI
HeLa cells [3]; 15 μM MMC or CB 1954, 50 μg ml^−1 enzyme (FIG. 1)
  greater reduction in HeLa cells survival compared to the controls: ~90%
HeLa cells [3]; MMC or CB 1954 (FIG. 1)
  activity for prodrug reduction relative to wild type: improved activity for prodrug reduction
HeLa cells [1]
  HeLa cell killing by CNOB: more active
HeLa cells [4]
  amount of bacteria required / killing of surface-adhered HeLa-luc cells: at least an order of magnitude less bacteria
HeLa cells [4]; in the presence of CB 1954 (15 μM), enzyme expressed by SL 7838 bacteria, IPTG induced (FIG. 5)
  reduction in survival of HeLa cells: 90%

B2: YieF: native E. coli NAD(P)H oxidoreductase ChrR (formerly called YieF), SEQ ID NO:1 (protein)
chain: B1 Quinone reductase with E57D, A120V, N128Y, N160T, G167S, L175Q
modifications: E. coli
HeLa cells [1]
  HeLa cell killing by CNOB: significant increase of cell killing compared to the control
HeLa cells [4]
  amount of bacteria required / killing of surface-adhered HeLa-luc cells: scarcely greater than seen in controls
